# Experimental data reported in PMC314469, “Protein Interaction Networks by Proteome Peptide Scanning” (PLoS Biology, 2004).
# B1: YCR088W 393-406 (peptide)
# chain: FSKPQEPVKAEEAE
# B2: YNL047C 421-434 (peptide)
# chain: FVPPNLPMRRFKEI
# B3: YGR233C 862-875 (peptide)
# chain: FPYPGNPLKIINYE
# B4: YDR517W 316-329 (peptide)
# chain: FTAPPVPTKKKSKN
# B5: YOR034C 343-356 (peptide)
# chain: FVLPSLPRKNTYKV
# B6: YJR054W 476-489 (peptide)
# chain: FREPDLPRKGLLED
# B7: YGL130W 106-119 (peptide)
# chain: FRFPRLPQKKKEEL
# B8: YGR065C 310-323 (peptide)
# chain: FVIPGVPSKSYSLF
# B9: YBR108W 657-670 (peptide)
# chain: FQPPPKPFRRSQSS
# Experiments:
# Test in all cases: SPOT array
# [1] = target: T1, Boi1 SH3 (BOI1_YEAST), P38041
# T1 chain: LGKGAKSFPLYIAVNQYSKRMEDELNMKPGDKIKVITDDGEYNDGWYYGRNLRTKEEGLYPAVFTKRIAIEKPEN
# [2] = target: T2, Boi2 SH3 (BOI2_YEAST), P39969
# T2 chain: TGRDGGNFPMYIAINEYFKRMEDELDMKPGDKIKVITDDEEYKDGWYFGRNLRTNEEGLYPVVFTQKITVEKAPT
# [3] = target: T3, Rvs167 SH3 (RV167_YEAST), P39743
# T3 chain: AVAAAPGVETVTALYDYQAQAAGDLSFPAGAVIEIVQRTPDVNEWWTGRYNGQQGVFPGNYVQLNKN
# [4] = target: T4, Yfr024 SH3 (LSB3_YEAST), P43603
# T4 chain: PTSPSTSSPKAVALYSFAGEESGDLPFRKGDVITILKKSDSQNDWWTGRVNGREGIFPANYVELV
# [5] = target: T5, Yhr016c SH3 (YSC84_YEAST), P32793
# T5 chain: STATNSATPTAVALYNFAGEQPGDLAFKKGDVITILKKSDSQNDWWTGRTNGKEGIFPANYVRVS
Binder,"normalised SPOT signal, Boehringer light units (BLU); mean over the file's lines of this peptide [1]","normalised SPOT signal, Boehringer light units (BLU); mean over the file's lines of this peptide [2]","normalised SPOT signal, Boehringer light units (BLU); mean over the file's lines of this peptide [3]","normalised SPOT signal, Boehringer light units (BLU); mean over the file's lines of this peptide [4]","normalised SPOT signal, Boehringer light units (BLU); mean over the file's lines of this peptide [5]"
B1,76.7,23.9,27.2,276,773
B2,11000,160,11800,25900,23200
B3,125,39,87,49.4,0
B4,346,44.8,86.4,9160,216
B5,96.3,20.4,16.4,4240,75.7
B6,133,41.4,33.2,1350,116
B7,105,172,1200,19500,1370
B8,94,48.3,0,44.7,66.7
B9,800,308,8580,45100,51000
